Measured values: publication PMC2756588

T1: Abp1, P15891
T1 sequence (P15891 535-592, looked up): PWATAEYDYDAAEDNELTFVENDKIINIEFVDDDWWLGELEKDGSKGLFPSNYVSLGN

T2: Bbc1, P47068
T2 sequence (P47068 1-78, looked up): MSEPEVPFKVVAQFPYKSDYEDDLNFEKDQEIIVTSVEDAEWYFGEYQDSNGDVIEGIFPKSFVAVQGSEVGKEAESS

T3: Boi1, P38041
T3 sequence (P38041 1-86, looked up): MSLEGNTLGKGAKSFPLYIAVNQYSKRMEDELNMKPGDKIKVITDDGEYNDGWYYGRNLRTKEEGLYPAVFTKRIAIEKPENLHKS

T4: Boi2, P39969
T4 sequence (P39969 32-116, looked up): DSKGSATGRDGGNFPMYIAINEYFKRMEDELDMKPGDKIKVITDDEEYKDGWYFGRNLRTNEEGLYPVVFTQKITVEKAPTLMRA

T5: Bud14, P27637
T5 sequence (P27637 247-328, looked up): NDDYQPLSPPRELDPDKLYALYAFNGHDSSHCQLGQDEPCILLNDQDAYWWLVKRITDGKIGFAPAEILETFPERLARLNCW

T6: Bzz1-1, P38822
T6 sequence (P38822 478-572, looked up): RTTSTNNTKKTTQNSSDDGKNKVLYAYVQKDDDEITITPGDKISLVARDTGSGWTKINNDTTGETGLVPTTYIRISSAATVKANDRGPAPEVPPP

T7: Bzz1-2, P38822
T7 sequence (P38822 568-633, looked up): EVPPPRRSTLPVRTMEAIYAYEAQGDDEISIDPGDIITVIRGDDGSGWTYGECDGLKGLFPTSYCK

T8: Cdc25, P04821
T8 sequence (P04821 50-136, looked up): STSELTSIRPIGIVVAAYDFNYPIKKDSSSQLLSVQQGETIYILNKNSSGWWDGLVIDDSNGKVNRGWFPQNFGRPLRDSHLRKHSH

T9: Cyk3, Q07533
T9 sequence (Q07533 1-83, looked up): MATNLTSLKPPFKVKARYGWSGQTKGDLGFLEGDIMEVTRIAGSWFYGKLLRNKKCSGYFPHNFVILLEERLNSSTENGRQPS

T10: Fus1, P11710
T10 sequence (P11710 432-512, looked up): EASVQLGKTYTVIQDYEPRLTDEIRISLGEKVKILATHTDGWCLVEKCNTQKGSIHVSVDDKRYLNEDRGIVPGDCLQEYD

T11: Hof1, Q05080
T11 sequence (Q05080 590-669, looked up): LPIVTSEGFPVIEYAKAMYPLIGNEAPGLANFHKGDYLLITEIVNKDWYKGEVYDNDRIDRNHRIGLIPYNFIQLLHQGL

T12: Hse1, P38753
T12 sequence (P38753 208-285, looked up): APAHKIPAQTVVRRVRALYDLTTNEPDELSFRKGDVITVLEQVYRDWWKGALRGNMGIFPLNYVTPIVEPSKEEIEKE

T13: Lsb1, P53281
T13 sequence (P53281 45-122, looked up): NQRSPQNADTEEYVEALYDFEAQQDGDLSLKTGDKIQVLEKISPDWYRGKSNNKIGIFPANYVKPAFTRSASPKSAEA

T14: Lsb3, P43603
T14 sequence (P43603 385-451, looked up): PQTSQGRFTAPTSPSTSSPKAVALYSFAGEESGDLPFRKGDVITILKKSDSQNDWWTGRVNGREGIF

T15: Lsb4, P32793
T15 sequence (P32793 402-468, looked up): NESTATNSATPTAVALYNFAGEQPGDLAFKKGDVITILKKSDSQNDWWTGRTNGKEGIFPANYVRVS

T16: Myo5, Q04439
T16 sequence (Q04439 1072-1160, looked up): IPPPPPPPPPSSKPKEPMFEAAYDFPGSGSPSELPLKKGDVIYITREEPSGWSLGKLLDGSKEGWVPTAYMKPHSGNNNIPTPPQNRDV

T17: Nbp2, Q12163
T17 sequence (Q12163 103-180, looked up): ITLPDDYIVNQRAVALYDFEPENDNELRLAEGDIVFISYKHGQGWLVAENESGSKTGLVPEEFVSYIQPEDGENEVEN

T18: Pex13, P80667
T18 sequence (P80667 295-386, looked up): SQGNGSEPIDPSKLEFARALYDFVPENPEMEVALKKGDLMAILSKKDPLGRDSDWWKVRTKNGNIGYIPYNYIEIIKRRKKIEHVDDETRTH

T19: Pin3, Q06449
T19 sequence (Q06449 53-122, looked up): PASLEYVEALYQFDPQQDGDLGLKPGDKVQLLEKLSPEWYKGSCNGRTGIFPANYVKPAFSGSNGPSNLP

T20: Sla1-2, P32790
T20 sequence (P32790 60-140, looked up): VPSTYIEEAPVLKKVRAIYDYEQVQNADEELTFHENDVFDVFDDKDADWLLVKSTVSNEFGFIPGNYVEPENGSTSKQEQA

T21: Sla1-3, P32790
T21 sequence (P32790 344-424, looked up): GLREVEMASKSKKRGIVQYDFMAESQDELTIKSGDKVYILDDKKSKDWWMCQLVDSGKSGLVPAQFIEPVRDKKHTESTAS


Assays:
Test in all cases: SPOT array
Abp1, P15891 = target: T1, Abp1, P15891; conditions: median of control spots 935
Bbc1, P47068 = target: T2, Bbc1, P47068; conditions: median of control spots 796
Bem1-1, P29366 = conditions: median of control spots 4282
Bem1-2, P29366 = conditions: median of control spots 4347
Boi1, P38041 = target: T3, Boi1, P38041; conditions: median of control spots 1162
Boi2, P39969 = target: T4, Boi2, P39969; conditions: median of control spots 1161
Bud14, P27637 = target: T5, Bud14, P27637; conditions: median of control spots 956
Bzz1-1, P38822 = target: T6, Bzz1-1, P38822; conditions: median of control spots 4446
Bzz1-2, P38822 = target: T7, Bzz1-2, P38822; conditions: median of control spots 4538
Cdc25, P04821 = target: T8, Cdc25, P04821; conditions: median of control spots 969
Cyk3, Q07533 = target: T9, Cyk3, Q07533; conditions: median of control spots 1451
Fus1, P11710 = target: T10, Fus1, P11710; conditions: median of control spots 1200
GST = conditions: median of control spots 978
Hof1, Q05080 = target: T11, Hof1, Q05080; conditions: median of control spots 4086
Hse1, P38753 = target: T12, Hse1, P38753; conditions: median of control spots 1727
Lsb1, P53281 = target: T13, Lsb1, P53281; conditions: median of control spots 388
Lsb3, P43603 = target: T14, Lsb3, P43603; conditions: median of control spots 406
Lsb4, P32793 = target: T15, Lsb4, P32793; conditions: median of control spots 397
Myo3, P36006 = conditions: median of control spots 468
Myo5, Q04439 = target: T16, Myo5, Q04439; conditions: median of control spots 471
Nbp2, Q12163 = target: T17, Nbp2, Q12163; conditions: median of control spots 357
Pex13, P80667 = target: T18, Pex13, P80667; conditions: median of control spots 1341
Pin3, Q06449 = target: T19, Pin3, Q06449; conditions: median of control spots 2171
Rvs167, P39743 = conditions: median of control spots 2707
Sho1, P40073 = conditions: median of control spots 1148
Sla1-2, P32790 = target: T20, Sla1-2, P32790; conditions: median of control spots 712
Sla1-3, P32790 = target: T21, Sla1-3, P32790; conditions: median of control spots 5475

Chain of Bem1-1, P29366 (P29366 55-141): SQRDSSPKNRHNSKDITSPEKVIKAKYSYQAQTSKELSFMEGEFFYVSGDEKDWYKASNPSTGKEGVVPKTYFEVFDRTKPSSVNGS
Chain of Bem1-2, P29366 (P29366 139-227): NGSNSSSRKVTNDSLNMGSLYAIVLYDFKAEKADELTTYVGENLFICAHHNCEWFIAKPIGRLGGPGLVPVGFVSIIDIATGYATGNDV
Chain of Rvs167, P39743 (P39743 419-482): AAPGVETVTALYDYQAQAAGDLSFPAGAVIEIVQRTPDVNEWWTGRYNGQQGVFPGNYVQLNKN
Chain of Sho1, P40073 (P40073 287-367): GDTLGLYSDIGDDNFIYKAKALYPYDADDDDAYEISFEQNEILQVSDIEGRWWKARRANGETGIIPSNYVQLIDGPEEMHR

| Binder | SPOT intensity (Abp1, P15891) | SPOT intensity (Bbc1, P47068) | SPOT intensity (Bem1-1, P29366) | SPOT intensity (Bem1-2, P29366) | SPOT intensity (Boi1, P38041) | SPOT intensity (Boi2, P39969) | SPOT intensity (Bud14, P27637) | SPOT intensity (Bzz1-1, P38822) | SPOT intensity (Bzz1-2, P38822) | SPOT intensity (Cdc25, P04821) | SPOT intensity (Cyk3, Q07533) | SPOT intensity (Fus1, P11710) | SPOT intensity (GST) | SPOT intensity (Hof1, Q05080) | SPOT intensity (Hse1, P38753) | SPOT intensity (Lsb1, P53281) | SPOT intensity (Lsb3, P43603) | SPOT intensity (Lsb4, P32793) | SPOT intensity (Myo3, P36006) | SPOT intensity (Myo5, Q04439) | other results |
| --- | --- | --- | --- | --- | --- | --- | --- | --- | --- | --- | --- | --- | --- | --- | --- | --- | --- | --- | --- | --- | --- |
| EREKALPPIPFTTTL | 0 | 0 | 1 | 0 | 0 | 0 | 0 | 0 | 0 | 0 | 0 | 0 | 0 | 354 | 1 | 16 | 4 | 2 | 0 | 0 | SPOT intensity (Nbp2, Q12163): 0; SPOT intensity (Pex13, P80667): 12; SPOT intensity (Pin3, Q06449): 2; SPOT intensity (Rvs167, P39743): 2; SPOT intensity (Sho1, P40073): 1480; SPOT intensity (Sla1-2, P32790): 1; SPOT intensity (Sla1-3, P32790): 0 |
| AATTSTPPLPRRRAT | 109 | 103 | 0 | 0 | 0 | 2 | 1 | 0 | 0 | 4 | 1 | 0 | 1 | 5 | 2 | 243 | 877 | 1360 | 31 | 0 | SPOT intensity (Nbp2, Q12163): 0; SPOT intensity (Pex13, P80667): 364; SPOT intensity (Pin3, Q06449): 35; SPOT intensity (Rvs167, P39743): 2280; SPOT intensity (Sho1, P40073): 38; SPOT intensity (Sla1-2, P32790): 0; SPOT intensity (Sla1-3, P32790): 0 |
| DLFKPLPEPPTELGR | 0 | 0 | 0 | 0 | 0 | 0 | 0 | 0 | 0 | 0 | 0 | 0 | 0 | 2 | 1 | 0 | 6 | 0 | 0 | 0 | SPOT intensity (Nbp2, Q12163): 0; SPOT intensity (Pex13, P80667): 47; SPOT intensity (Pin3, Q06449): 0; SPOT intensity (Rvs167, P39743): 0; SPOT intensity (Sho1, P40073): 1320; SPOT intensity (Sla1-2, P32790): 0; SPOT intensity (Sla1-3, P32790): 0 |
| KKEKKPPKIPKKVYT | 161 | 0 | 1 | 4 | 0 | 3 | 0 | 0 | 18 | 3 | 1 | 3 | 3 | 4 | 12 | 0 | 0 | 0 | 0 | 0 | SPOT intensity (Nbp2, Q12163): 0; SPOT intensity (Pex13, P80667): 0; SPOT intensity (Pin3, Q06449): 1; SPOT intensity (Rvs167, P39743): 0; SPOT intensity (Sho1, P40073): 16; SPOT intensity (Sla1-2, P32790): 0; SPOT intensity (Sla1-3, P32790): 12 |
